Reference: patent US6429191B1, “Treatment of hearing impairments” (Genentech, Inc., priority 1996, dated 2002)

Assays:
[1] = tested on: hair cells in cochlear explants; assay: Protective effects in cochlear explant cultures co-treated with ototoxins, hair cell count; type: cell-based, rat; details: for protective effects on hair cells against ototoxins: growth factor added together with ototoxin, data not shown
Description: (§1) FIGS. 9A and 9B depict quantitation of protective effects of NT-4/5 on SGNs (FIG. 9A) and hair cells (FIG. 9B). […] The same experimental procedures were performed as in FIGS. 6A and 6B. The error bars are SEM and ** indicate that as compared to the cultures containing an ototoxin alone, p<0.001. “Con” indicates control culture.
(§2) The protective effect of neurotrophins against ototoxicity was determined in the organotypic cultures of postnatal cochlear explants described in the Examples above. […] A human recombinant neurotrophin (Genentech, Inc.) or other growth factors, alone or in combination, was added to the culture at the same time the ototoxin was added.
(§3) Two days after treatment with ototoxins or co-treatment with ototoxins and neurotrophins (or other growth factors), the cochlear explant cultures were fixed in 4% paraformaldehyde in 0.1 M phosphate buffer (pH 7.4) for 30 min, washed in PBS, and subjected to double histochemical staining of the cochlear explant cultures. After incubation with the monoclonal antibody N52 against neurofilament protein (200 kd) in 1% Triton X100 containing 3% normal goat serum (“NGS”) for 2 days at 4° C., the explants were incubated with a Texas red-conjugated goat anti-mouse secondary antibody (1:70; Cappel) at room temperature for 40 min. The preparations were then stained with FITC-conjugated phalloidin (0.5 μg/ml; Sigma) for 45 min, washed in PBS and mounted in Fluoromount-G (Southern Biotechnology Associates, Birmingham, Ala.) which contains an anti-fading agent.

[2] = tested on: SGNs in cochlear explants; assay: Protective effects in cochlear explant cultures co-treated with ototoxins, SGN peripheral axon count; type: cell-based, rat; details: for protective effects on SGNs against ototoxins: growth factor added together with ototoxin, data not shown
Description: as §1
FIG. 10 depicts quantitation of neuroprotection of different neurotrophins against sodium salicylate (Sal) and gentamicin (Gent). […] Sodium salicylate (5 mM) or gentamicin (3 mM) was added either alone or in combination with one of the neurotrophins (20 ng/ml) to 2-day cultures and the cultures were kept for 2 more days. The same experimental procedures were performed as in FIGS. 6A and 6B. […] The error bars are SEM and ** indicate that as compared to the cultures containing an ototoxin alone, p<0.001.
as §2, §3

[3] = tested on: spiral ganglion neurons (SGNs); assay: Survival of dissociated spiral ganglion neurons in serum-free culture; type: cell-based, rat; details: for survival-promoting effect on SGNs: P5 rat SGNs, neurotrophins 0.1-50 ng/ml
Description: FIG. 1 is a histogram depicting the effects of NT-4/5 on SGN survival. SGNs were prepared from P5 rats, plated and kept for 2 days in serum-free medium in the absence or presence of NT-4/5 at different concentrations. Viable SGNs were identified by labeling with a neurofilament monoclonal antibody (N52), viewed under a Zeiss Axiophot microscope, and counted using a grid ocular reticule covering an area of […]. For each culture, about 10 randomly selected fields were counted. Data were collected from 3 to 5 cultures and normalized as a percentage of the number of viable neurons in the control cultures in each of the experiments. The error bars represent SEM.
FIG. 2 is a histogram depicting the effects of different neurotrophins on SGN survival. SGNs were prepared from P5 rats and maintained for 2 days in serum-free medium without or with different neurotrophins at different concentrations. Quantitation of viable SGNs was made in the same way as in FIG. 1 and the error bars are SEM. […] Difference between NT-3 and NT-4/5 or BDNF was very significant at all doses (P<0.001). No statistical difference was found between NT-4/5 and BDNF except the dose of 0.1 ng/ml (P<0.01).
Identical results (not shown) were also obtained with a different neuronal marker, a monoclonal antibody 3A10 (Furley et al., 1990). SGNs were dissociated from postnatal day 5 (P5) rat cochleae and plated in defined serum-free medium. […] The enzyme was inactivated with a mixture of 0.005% soybean trypsin inhibitor (Sigma) and 0.005% DNase (Worthington) before trituration with 0.05% DNase in Eagle's Basal Medium (“BME”). The dissociated cells were preplated on a 35 mm untreated tissue culture dish for 25 min to enrich the neuronal population. Under these experimental procedures, about 10% of the cell population were spiral ganglion neurons (“SGNs”) as determined by immunocytochemistry with a monoclonal antibody (N52; Boehringer) against neurofilaments (200 kd; Boehringer). […] Cells were plated at a density of 80,000/well. In control cultures about 75% of SGNs died after 2 days, presumably due to a lack of growth factors.

[4] = tested on: spiral ganglion neurons (SGNs); assay: Neurotrophin protection of dissociated SGNs against cisplatin neurotoxicity; type: cell-based, rat; details: 10 ng/ml neurotrophin
Description: Quantitation of viable SGNs was done in the same way as in FIG. 1. The error bars stand for SEM. […] While no difference was found between cultures containing NT-4/5 and cultures containing BDNF, the difference between cultures containing NT-3 and cultures containing NT-4/5 or BDNF was statistically very significant (P<0.001).

trkC receptor = trkC receptor (Homo sapiens, UniProt Q16288); details: compared with NT-3; cited from earlier work
trkC receptor, sequence (Q16288 32-839): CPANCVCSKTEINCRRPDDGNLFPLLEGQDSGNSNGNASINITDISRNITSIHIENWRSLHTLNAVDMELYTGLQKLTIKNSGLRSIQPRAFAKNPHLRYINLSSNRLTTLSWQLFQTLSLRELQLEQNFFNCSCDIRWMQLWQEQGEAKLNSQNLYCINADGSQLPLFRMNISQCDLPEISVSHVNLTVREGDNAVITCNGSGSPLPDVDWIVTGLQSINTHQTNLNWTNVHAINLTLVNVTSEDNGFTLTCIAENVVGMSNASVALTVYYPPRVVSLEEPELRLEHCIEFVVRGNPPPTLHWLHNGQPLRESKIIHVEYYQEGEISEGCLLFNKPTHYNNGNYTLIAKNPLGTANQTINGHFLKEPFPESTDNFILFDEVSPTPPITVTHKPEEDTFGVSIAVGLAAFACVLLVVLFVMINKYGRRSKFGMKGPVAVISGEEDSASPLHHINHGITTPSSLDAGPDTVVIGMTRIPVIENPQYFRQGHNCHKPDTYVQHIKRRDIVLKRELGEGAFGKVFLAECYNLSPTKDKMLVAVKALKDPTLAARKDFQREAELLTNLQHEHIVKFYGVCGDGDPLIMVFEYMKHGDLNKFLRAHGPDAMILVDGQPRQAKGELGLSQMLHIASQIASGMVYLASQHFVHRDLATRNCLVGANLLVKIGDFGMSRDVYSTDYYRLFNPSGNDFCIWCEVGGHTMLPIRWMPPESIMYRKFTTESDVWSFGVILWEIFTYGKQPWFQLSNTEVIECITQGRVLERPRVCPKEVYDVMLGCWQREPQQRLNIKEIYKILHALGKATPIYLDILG

B1: FGF-7: growth factor (R&D Systems) (protein, UniProt P21781 32-194, looked up)
Fibroblast growth factor 7: CNDMTPEQMATNVNCSSPERHTRSYDYMEGGDIRVRRLFCRTQWYLRIDKRGKVKGTQEMKNNYNIMEIRTVAVGIVAIKGVESEFYLAMNKEGKLYAKKECNEDCNFKELILENHYNTYASAKWTHNGGEMFVALNQKGIPVRGKKTKKEQKTAHFLPMAIT
[1]
  protective effects on hair cells against ototoxins: did not show detectable protective effects
[2]
  protective effects on SGNs against ototoxins: did not show detectable protective effects

B2: TGF-β2: transforming growth factor (protein, UniProt P61812 303-414, looked up)
Transforming growth factor …: ALDAAYCFRNVQDNCCLRPLYIDFKRDLGWKWIHEPKGYNANFCAGACPYLWSSDTQHSRVLSLYNTINPEASASPCCVSQDLEPLTILYYIGKTPKIEQLSNMIVKSCKCS
[3]; 2 days, serum-free medium
  survival-promoting effect on SGNs: No survival-promoting effects
[1]
  protective effects on hair cells against ototoxins: did not show detectable protective effects
[2]
  protective effects on SGNs against ototoxins: did not show detectable protective effects

B3: neurotrophin-4/5 (protein, UniProt P34130 81-210, looked up)
Neurotrophin-4: GVSETAPASRRGELAVCDAVSGWVTDRRTAVDLRGREVEVLGEVPAAGGSPLRQYFFETRCKADNAEEGGPGAGGGGCRGVDRRHWVSECKAKQSYVRALTADAQGRVGWRWIRIDTACVCTLLSRTGRA
modifications: Neurotrophin-4
[3]; 0.1 ng/ml
  potency on SGN survival compared with other neurotrophins: more potent than BDNF
[3]; 10 ng/ml, 2 days, serum-free medium, vs control cultures
  maximal effect, increase in number of surviving SGNs: approximately 3 fold
[3]; 2 days, serum-free medium
  survival-promoting effect on SGNs: greatly enhanced the number of surviving SGNs in a dose-dependent manner
[3]; saturated concentrations
  synergistic/additive effects on SGN survival when added together with BDNF or NT-3: no additive effects
[4]; 1 μg/ml or 2 μg/ml cisplatin, 2 days
  percentage of surviving SGNs compared with control cultures lacking cisplatin: higher than that in the control cultures lacking cisplatin
[4]; 4 μg/ml cisplatin
  protection of SGNs compared with cultures containing cisplatin alone: significantly protected SGNs from cell death
[4]; 4 μg/ml cisplatin, 2 days
  survival level, % of control cultures in the absence of cisplatin: 70%
[1]; 20 ng/ml, no ototoxin
  number of hair cells in control cultures: did not enhance
[2]; 20 ng/ml neurotrophin, sodium salicylate 5 mM or gentamicin 3 mM
  neuroprotection of SGNs against sodium salicylate and gentamicin: significant neuroprotection
[2]; 20 ng/ml, no ototoxin
  number of SGNs in control cultures: did not enhance
[2]; 20 ng/ml, sodium salicylate 5 mM, gentamicin 3 mM or cisplatin 4 μg/ml, 2 days co-treatment
  protection of SGNs from the three ototoxins: significantly protected SGNs from the three ototoxins

B4: TGF-β3: transforming growth factor (protein, UniProt P10600 301-412, looked up)
Transforming growth factor …: ALDTNYCFRNLEENCCVRPLYIDFRQDLGWKWVHEPKGYYANFCSGPCPYLRSADTTHSTVLGLYNTLNPEASASPCCVPQDLEPLTILYYVGRTPKVEQLSNMVVKSCKCS
[3]; 2 days, serum-free medium
  survival-promoting effect on SGNs: No survival-promoting effects
[1]
  protective effects on hair cells against ototoxins: did not show detectable protective effects
[2]
  protective effects on SGNs against ototoxins: did not show detectable protective effects

B5: FGF-5: growth factor (R & D Systems) (protein, UniProt P12034 21-268, looked up)
Fibroblast growth factor 5: HGEKRLAPKGQPGPAATDRNPRGSSSRQSSSSAMSSSSASSSPAASLGSQGSGLEQSSFQWSPSGRRTGSLYCRVGIGFHLQIYPDGKVNGSHEANMLSVLEIFAVSQGIVGIRGVFSNKFLAMSKKGKLHASAKFTDDCKFRERFQENSYNTYASAIHRTEKTGREWYVALNKRGKAKRGCSPRVKPQHISTHFLPRFKQSEQPELSFTVTVPEKKKPPSPIKPKIPLSAPRKNTNSVKYRLKFRFG
[1]
  protective effects on hair cells against ototoxins: did not show detectable protective effects
[2]
  protective effects on SGNs against ototoxins: did not show detectable protective effects

B6: E92A NT-3: NT-3 with mutation at position E92 to alanine (protein, UniProt P20783 139-257, looked up, variant E92A)
Neurotrophin-3: YAEHKSHRGEYSVCDSESLWVTDKSSAIDIRGHQVTVLGEIKTGNSPVKQYFYETRCKEARPVKNGCRGIDDKHWNSQCKTSQTYVRALTSANNKLVGWRWIRIDTSCVCALSRKIGRT
modifications: Neurotrophin-3
notes: NT-3 with mutation at position E92 to alanine
trkC receptor
  trkC binding of NT-3 mutant: increased trkC binding
